Results as given in patent US10501552B2, “Multivalent molecules comprising DR5-binding domains” (MacroGenics, Inc., priority 2015, dated 2019).
Each block holds one molecule with its values, some of them ahead of it.

Tests used:
[1] = system: cell lines obtained from ATCC; assay: MTS cell proliferation assay, panel of cell lines; assay type: cell-based; conditions: for inhibition of cell growth, antibody alone: any of cell lines examined, not cross-linked; for cytotoxicity when cross-linked: cross-linked by goat anti-mouse IgG Fc antibody
Experimental: (§1) Cell lines obtained from ATCC were cultured under standard tissue culture conditions. Each cell line was plated at ˜2×10^4 cells/well (in 96-well plates), and incubated overnight in F12/DMEM media supplemented with 10% FBS. […] Cell viability was determined using Promega CellTiter 96® AQeous Non-Radioactive Cell Proliferation Assay (Cat # G5430) essentially as described in the manufacturer's instructions to assay the amount of soluble formazan produced by cellular reduction of the MTS, which is a measure of the number of viable cells in the culture. Briefly, MTS/PMS regent was added to the wells and the absorbance at 490 nm (referenced at […]) was read in a Molecular Devices ThermoMax microplate reader.
(§2) Similar studies were performed over a range of anti-DR5 mAb concentrations from ˜10^−3 nM to ˜10^2 nM. The data for COLO205 cells is provided in FIG. 13, and are representative of cell lines sensitive to the antibodies of the invention.
(§3) The cytotoxicity of tetravalent DR5-Binding Molecules of the present invention was investigated. […] His-tagged TRAIL (R&D systems) was used as a positive control.

MCF7 = assay: […]-GLO cell viability assay with vorinostat; assay type: cell-based; conditions: MCF7 (Breast); 1 μg/ml + 10 μM Vorinostat
[2] = system: human DR5-Fc fusion protein; assay: competition for binding to immobilized DR5-Fc fusion; conditions: for amount of immobilized biotinylated antibody: 1 μg/mL biotinylated DR5 mAb, 1 μg/mL DR5-Fc Fusion coat
Sequence of human DR5-Fc fusion protein (as listed by the source): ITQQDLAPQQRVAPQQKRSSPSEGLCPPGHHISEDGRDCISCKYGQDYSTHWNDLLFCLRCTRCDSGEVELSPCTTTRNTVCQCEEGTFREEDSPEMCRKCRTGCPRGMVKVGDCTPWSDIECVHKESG
Experimental: In order to determine whether the antibodies bound to different DR5 epitopes, a human DR5-Fc fusion protein was prepared and was coated to an immobilized surface.

SKBR3 [3] = assay: […]-GLO cell viability assay with vorinostat; assay type: cell-based, human; conditions: SKBR3 (Breast); 1 μg/ml + 1 μM Vorinostat
22RV1 = assay: […]-GLO cell viability assay with vorinostat; assay type: cell-based; conditions: 22RV1 (Prostate); 1 μg/ml + 10 μM Vorinostat
histidine tagged TRAIL = histidine tagged TRAIL (Homo sapiens, UniProt P50591); assay: binding to TRAIL-His coat; conditions: 2 μg/mL biotinylated; 1 μg/mL TRAIL-His coat
Sequence of histidine tagged TRAIL (P50591 114-281 limits assumed): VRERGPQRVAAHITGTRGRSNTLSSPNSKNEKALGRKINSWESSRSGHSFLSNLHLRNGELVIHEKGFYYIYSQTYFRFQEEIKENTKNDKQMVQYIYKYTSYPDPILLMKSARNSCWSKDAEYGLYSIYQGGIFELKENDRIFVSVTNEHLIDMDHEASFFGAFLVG
Experimental: The amount of immobilized biotinylated antibody was assessed.

786O = assay: […]-GLO cell viability assay with vorinostat; assay type: cell-based; conditions: 786O (Kidney); 1 μg/ml + 1 μM Vorinostat
SKMES = assay: MTS cell proliferation assay; assay type: cell-based, human; conditions: SKMES (Lung); 1 μg/ml, ±10 μg/ml αmFc; two days
Experimental: as §1, §2, §3
(§4) Similar studies were performed over a range of anti-DR5 mAb concentrations from ˜10^−3 nM to ˜10^2 nM.

SKBR3 [4] = assay: MTS cell proliferation assay; assay type: cell-based, human; conditions: SKBR3 (Breast); 1 μg/ml, ±10 μg/ml αmFc; two days
Experimental: as §1, §2, §3, §4

DU145 = assay: MTS cell proliferation assay; assay type: cell-based, human; conditions: DU145 (Prostate); 1 μg/ml, ±10 μg/ml αmFc; two days
Experimental: as §1, §2, §3, §4

A549 = assay: MTS cell proliferation assay; assay type: cell-based, human; conditions: A549 (Lung); 1 μg/ml, ±10 μg/ml αmFc; two days
Experimental: as §1, §2, §3, §4

LNCap = assay: MTS cell proliferation assay; assay type: cell-based, human; conditions: LNCap (Prostate); 1 μg/ml, ±10 μg/ml αmFc; two days
Experimental: as §1, §2, §3, §4

epitope comparison by competition [2]: bind to different epitopes
amount of immobilized biotinylated antibody ([2]; 10 μg/mL competitor DR5 mAb 2): 0.826
amount of immobilized biotinylated antibody ([2]; 10 μg/mL competitor mIgG): 2.162
amount of immobilized biotinylated antibody (histidine tagged TRAIL): 0.007
B1: DR5 mAb 1: anti-human DR5 monoclonal antibody; VL SEQ ID NO:3, VH SEQ ID NO:8 (antibody, listed as Mus musculus, V domains shown)
VH: EVKFLESGGGLVQPGGSLKLSCVASGFDFSRYWMSWVRQAPGKGLEWIGEINPDSNTINYTPSLKDKFIISRDNAKNTLYLQMTKVRSEDTALYYCTRRAYYGNPAWFAYWGQGTLVTVSS
VL: DIVLTQSPASLAVSLGQRATISCRASKSVSSSGYSYMHWYQQKPGQPPKVLIFLSSNLDSGVPARFSGSGSGTDFTLNIHPVEDGDAATYYCQHSRDLPPTFGGGTKLEIK
modifications: (1)..(121) Anti-DR5 Antibody mAb 1 Heavy Chain Variable Region; (1)..(111) Anti-DR5 Antibody mAb 1 Light Chain Variable Region
inhibition of cell growth, antibody alone [1]: neither DR5 mAb 1, nor DR5 mAb 2 alone is capable of inhibiting cell growth
cytotoxicity when cross-linked [1]: potent cytotoxicity
Net Gain (Average % Growth Inhibition) (MCF7): 4.55%
Net Gain (Average % Growth Inhibition) (SKBR3 [3]): 0.69%
Net Gain (Average % Growth Inhibition) (22RV1): 7.49%
Net Gain (Average % Growth Inhibition) (786O): 0.64%
% Inhibition (Average) (SKMES): 1.75%
% Inhibition (Average) (SKBR3 [4]): 1.97%
% Inhibition (Average) (DU145): 1.66%
% Inhibition (Average) (A549): 2.79%
% Inhibition (Average) (LNCap): 2.1%

epitope comparison by competition [2]: bind to different epitopes
amount of immobilized biotinylated antibody ([2]; 10 μg/mL competitor DR5 mAb 1): 2.377
amount of immobilized biotinylated antibody ([2]; 10 μg/mL competitor mIgG): 2.102
amount of immobilized biotinylated antibody (histidine tagged TRAIL): 0.008
B2: DR5 mAb 2: murine anti-human DR5 monoclonal antibody; VL SEQ ID NO:13, VH SEQ ID NO:18 (antibody, listed as Mus musculus, V domains shown)
VH: KVQLQQSGAELVKPGASVKLSCKASGYTFTEYILHWVKQKSGQGLEWIGWFYPGNNNIKYNEKFKDKATLTADKSSSTVYMELSRLTSEDSAVYFCARHEQGPGYFDYWGQGTTLTVSS
VL: DIVMTQSHKFMSTSVGDRVSITCKASQDVNTAVAWYQQKPGQSPKLLIYWASTRHTGVPDRFTGSGSGTDYTLTIKSVQAEDLTLYYCQQHYITPWTFGGGTKLEIK
modifications: (1)..(119) Anti-DR5 Antibody mAb 2 Heavy Chain Variable Region; (1)..(107) Anti-DR5 Antibody mAb 2 Light Chain Variable Region
inhibition of cell growth, antibody alone [1]: neither DR5 mAb 1, nor DR5 mAb 2 alone is capable of inhibiting cell growth
cytotoxicity when cross-linked [1]: potent cytotoxicity
Net Gain (Average % Growth Inhibition) (MCF7): 5.00%
Net Gain (Average % Growth Inhibition) (SKBR3 [3]): 0.69%
Net Gain (Average % Growth Inhibition) (22RV1): 7.49%
Net Gain (Average % Growth Inhibition) (786O): 2.33%
% Inhibition (Average) (SKMES): 1.28%
% Inhibition (Average) (SKBR3 [4]): 2.55%
% Inhibition (Average) (DU145): 2.09%
% Inhibition (Average) (A549): 4.25%
% Inhibition (Average) (LNCap): 1.72%
